Measurements as given in PMC2914609 (Nanomedicine (London, England), 2010).

Biological target: the molecule itself
Experiment: SEC

B1: Phage fusion 55-mer coat protein (pVIII coat fusion protein bearing the MCF-7-specific peptide DMPGTVLP) (designed binder)
chain: ADMPGTVLPDPAKAAFDSLQASATEYIGYAWAMVVVIVGATIGIKLFKKFTSKAS
  stoichiometry N: 8
